Legend:
[1] = molecular target: 70-kDa N-terminal FN fragment (FN70); assay: solid-phase binding assay; conditions: FN70 25 μg/ml coated on plate, read off a plot
[2] = molecular target: Full-length fibronectin (UniProt P02751); assay: solid-phase binding assay; conditions: FN-FL 25 μg/ml coated on plate, read off a plot
[3] = [HSP90α] 2.5 µM (read from x axis), parent: est. 1.4
[4] = [HSP90α] about 0.31 µM (read from x axis), parent: est. 1.1
[5] = [HSP90α] about 0.63 µM (read from x axis), parent: est. 1.3
[6] = [HSP90α] about 1.25 µM (read from x axis), parent: est. 1.4

Sequence of Full-length fibronectin (P02751 32-2477): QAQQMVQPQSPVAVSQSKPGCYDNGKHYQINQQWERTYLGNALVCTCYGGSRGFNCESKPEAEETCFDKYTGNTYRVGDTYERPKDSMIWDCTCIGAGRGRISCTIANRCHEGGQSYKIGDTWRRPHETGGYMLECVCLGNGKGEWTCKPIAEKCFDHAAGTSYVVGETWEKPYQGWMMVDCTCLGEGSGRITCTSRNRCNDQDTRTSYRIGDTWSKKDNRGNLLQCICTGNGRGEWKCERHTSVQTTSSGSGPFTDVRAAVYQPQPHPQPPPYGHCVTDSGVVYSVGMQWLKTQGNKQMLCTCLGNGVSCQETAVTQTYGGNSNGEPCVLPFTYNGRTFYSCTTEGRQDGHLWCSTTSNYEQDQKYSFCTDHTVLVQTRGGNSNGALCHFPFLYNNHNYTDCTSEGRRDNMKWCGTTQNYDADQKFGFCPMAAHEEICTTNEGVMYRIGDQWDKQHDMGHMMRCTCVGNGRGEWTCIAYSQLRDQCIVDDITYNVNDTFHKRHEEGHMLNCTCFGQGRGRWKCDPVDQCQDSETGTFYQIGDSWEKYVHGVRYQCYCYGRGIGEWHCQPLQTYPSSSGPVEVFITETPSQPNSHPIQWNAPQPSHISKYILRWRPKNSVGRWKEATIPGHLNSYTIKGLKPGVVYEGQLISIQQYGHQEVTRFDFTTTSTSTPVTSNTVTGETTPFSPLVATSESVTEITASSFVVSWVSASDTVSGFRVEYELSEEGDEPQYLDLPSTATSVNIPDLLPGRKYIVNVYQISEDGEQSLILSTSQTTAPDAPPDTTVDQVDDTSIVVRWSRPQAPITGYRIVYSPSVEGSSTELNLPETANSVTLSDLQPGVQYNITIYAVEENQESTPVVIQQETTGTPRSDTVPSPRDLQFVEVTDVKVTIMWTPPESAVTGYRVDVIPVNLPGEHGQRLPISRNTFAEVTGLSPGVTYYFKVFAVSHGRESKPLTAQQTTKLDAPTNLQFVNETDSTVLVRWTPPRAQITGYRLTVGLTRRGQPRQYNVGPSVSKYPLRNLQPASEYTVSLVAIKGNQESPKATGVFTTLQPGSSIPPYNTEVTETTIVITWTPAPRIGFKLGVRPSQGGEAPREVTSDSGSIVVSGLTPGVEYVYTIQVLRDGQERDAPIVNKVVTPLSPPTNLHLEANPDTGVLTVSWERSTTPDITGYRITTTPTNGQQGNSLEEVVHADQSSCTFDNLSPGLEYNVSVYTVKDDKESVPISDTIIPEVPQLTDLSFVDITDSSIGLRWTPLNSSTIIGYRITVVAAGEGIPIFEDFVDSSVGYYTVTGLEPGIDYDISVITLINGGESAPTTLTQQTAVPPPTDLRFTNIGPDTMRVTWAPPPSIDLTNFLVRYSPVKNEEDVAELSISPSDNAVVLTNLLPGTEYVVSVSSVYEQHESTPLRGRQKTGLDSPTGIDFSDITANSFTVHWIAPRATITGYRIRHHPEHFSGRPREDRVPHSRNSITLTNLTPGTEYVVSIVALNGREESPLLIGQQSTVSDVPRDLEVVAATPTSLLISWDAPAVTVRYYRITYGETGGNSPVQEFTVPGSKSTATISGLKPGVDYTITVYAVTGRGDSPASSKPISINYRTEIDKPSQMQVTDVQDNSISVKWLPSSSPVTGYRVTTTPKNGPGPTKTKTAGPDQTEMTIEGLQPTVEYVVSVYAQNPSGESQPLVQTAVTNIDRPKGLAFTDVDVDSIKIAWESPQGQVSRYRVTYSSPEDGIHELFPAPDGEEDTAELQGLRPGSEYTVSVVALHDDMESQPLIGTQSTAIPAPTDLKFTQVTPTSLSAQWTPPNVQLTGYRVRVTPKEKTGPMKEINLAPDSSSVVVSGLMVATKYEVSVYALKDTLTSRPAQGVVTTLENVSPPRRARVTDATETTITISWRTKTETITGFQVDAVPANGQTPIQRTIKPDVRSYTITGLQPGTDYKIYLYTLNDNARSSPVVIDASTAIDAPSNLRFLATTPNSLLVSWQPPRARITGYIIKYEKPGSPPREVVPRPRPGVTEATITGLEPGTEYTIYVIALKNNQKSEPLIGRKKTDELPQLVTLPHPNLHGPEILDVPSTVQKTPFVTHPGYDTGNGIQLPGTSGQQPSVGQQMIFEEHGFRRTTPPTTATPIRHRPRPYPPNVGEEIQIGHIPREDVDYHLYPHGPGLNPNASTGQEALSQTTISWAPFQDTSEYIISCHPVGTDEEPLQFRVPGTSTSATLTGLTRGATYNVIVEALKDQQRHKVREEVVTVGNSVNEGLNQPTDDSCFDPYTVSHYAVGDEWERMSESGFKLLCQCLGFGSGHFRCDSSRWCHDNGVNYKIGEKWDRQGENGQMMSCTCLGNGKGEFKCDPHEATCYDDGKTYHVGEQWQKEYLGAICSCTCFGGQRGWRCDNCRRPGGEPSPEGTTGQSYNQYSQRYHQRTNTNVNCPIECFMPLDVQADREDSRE

| Substance | response (Absorbance (450 nm)) [1, 3] | response (Absorbance (450 nm)) [1, 4] | response (Absorbance (450 nm)) [1, 5] | response (Absorbance (450 nm)) [1, 6] | response (Absorbance (450 nm)) [2, 3] | response (Absorbance (450 nm)) ([2]; [HSP90α] about 0.31 µM (read from x axis), parent: est. 1.0) | response (Absorbance (450 nm)) ([2]; [HSP90α] about 0.63 µM (read from x axis), parent: est. 1.25) | response (Absorbance (450 nm)) ([2]; [HSP90α] about 1.25 µM (read from x axis), parent: est. 1.2) |
| --- | --- | --- | --- | --- | --- | --- | --- | --- |
| Recombinant full-length wild type His-HSP90α (from UniProt P07900) F352A; Y528A | 1.1 | 0.72 | 0.83 | 0.99 | – | – | – | – |
| Recombinant full-length wild type His-HSP90α (from UniProt P07900) Y528A | 1.1 | 0.82 | 0.93 | 1.1 | – | – | – | – |
| Recombinant full-length wild type His-HSP90α, P07900 F352A; Y528A | – | – | – | – | 0.53 | 0.36 | 0.45 | 0.44 |

From article PMC10746679
